{
  "source": "patent US20140017790A1",
  "about": "“CONTROL AGENT FOR CONTROLLING UNDIFFERENTIATED STATE AND USE THEREOF” (RIKEN, priority 2011, published 2014)",
  "type_in_all_cases": "cell-based",
  "key": {"human iPS cells": {"test_system": "human iPS cells", "assay": "cell adhesion and growth, number of human iPS cells over time", "conditions": "bFGF(-)/CCL2(+) versus bFGF(+)/CCL2(-)", "procedure": "Human iPS cells were cultured under feeder conditions in the same manner as in Example 8, and the number of cells was measured every 48 hours. As a negative control, the same procedures were carried out except that bFGF was added instead of the CCL2. FIG. 17 is a graph showing the change with time in the number of the human iPS cells. The vertical axis indicates the number of cells (10^4 cells/ml), and the horizontal axis indicates the culture time (hr). CCL2(+) indicates the results obtained under the conditions of bFGF(−)/CCL2(+), and CCL2(−) indicates the results obtained under the conditions of bFGF(+)/CCL2(−)."}, "mouse ES cells": {"test_system": "mouse ES cells", "assay": "quantitative RT-PCR of undifferentiated marker genes in mouse ES cells", "conditions": "LIF 1000 units/ml, CCL2 500 ng/ml", "procedure": "(§1) A PrimeScript RT-PCR Kit (trade name, TAKARA BIO INC.), an ABI 7500 Fast real time PCR system (trade name, Applied BioSystems), and a SYBR (registered trademark) Premix Ex Taq (trade name, TAKARA BIO INC.) were used in accordance with their protocols. PCR was carried out by conducting 40 cycles of treatment with a treatment at 94° C. for 5 second and at 62.5° C. for 20 seconds as 1 cycle. The expression level of each gene was calculated by normalizing the relative amount of mRNA in the gene to Gapdh mRNA according to the 2^−ΔΔ^CT method (Thomse R, Solvsten C A, Linnet T E, et al., Analysis of qPCR data by converting exponentially related Ct values into linearly related XO values. J Bioinform Comput Biol 2010: 8: 885-900.).\n[…] Furthermore, as a negative control, the expression levels of the undifferentiated marker genes were determined in the same manner regarding the mouse ES […] Then, the fold changes in the expression level relative to the negative control were calculated.\nFIG. […] The vertical axis indicates the fold change (-fold), and the horizontal axis indicates the examined undifferentiated marker genes. […] In the former case (open bar), the concentration of the LIF in the medium was 1000 units/ml and the concentration of the CCL2 in the medium was 500 ng/ml. […]"}, "mouse iPS cells": {"test_system": "mouse iPS cells", "assay": "quantitative RT-PCR of undifferentiated marker genes, CCL2 overexpressed in mouse iPS cells", "conditions": "CCL2 overexpressed (Ccl2 expression vector), feeder free, 24 hours", "procedure": "as §1\nIn the following manner, CCL2 was overexpressed in the mouse iPS cells, and the expression levels of undifferentiated marker genes were examined. The undifferentiated marker genes were the Ecat1 gene, Cripto gene, Oct3/4 gene, Zfp42 gene, Esg1 gene, Eras gene, Fgf4 gene, Dax1 gene, Nanog gene, Sox2 gene, Klf4 gene, cMyc gene, Tbx3 gene, and Eed gene.\nA Ccl2 expression vector that overexpresses CCL2 was constructed. The CCL2 to be expressed was a mouse-derived protein having a full-length amino acid sequence of SEQ ID NO: 3. First, using a Gateway Technology (Invitrogen), a full-length cDNA (SEQ ID NO: 6) coding for the CCL2 was cloned into a pENTER/D-TOPO vector. The cloned sequence was confirmed, and thereafter, the full-length cDNA was inserted into an EF-α1 promoter-containing pEF-DEST51 vector (Invitrogen) using a Gateway LR Clonase II Enzyme Mix (Invitrogen), thus constructing the Ccl2 expression vector. The Ccl2 expression vector was purified using an Endotoxin free Plasmid maxi prep kit (Qiagen) in accordance with its protocol.\nNext, the mouse iPS cells cultured under the feeder free conditions were seeded in a 12-well dish at a density of 3×10^5 cells/well. The amount of a medium to be added to the dish was set to 1 ml/well. Then, using 16 μl of a Lipofectamine 2000 (Invitrogen) and 4.8 μg of the Ccl2 expression vector per well, the mouse iPS cells were transfected with the Ccl2 expression vector. These mouse iPS cells were cultured for another 24 hours under feeder free conditions. Thereafter, total RNAs were extracted, and the expression levels of the undifferentiated marker genes were examined. The expressions of the undifferentiated marker genes were examined by the quantitative RT-PCR using the above-described primers. […] Then, the fold changes in expression level relative to the negative control were calculated."}, "KLF4": {"test_system": "KLF4", "assay": "KLF4/GAPDH ratio in human iPS cells", "conditions": "feeder conditions, 6 days, negative control (bFGF) = 1", "procedure": "Then, the ratio of the phosphorylated AKT to the non-phosphorylated AKT (p-AKT/AKT) was determined. Assuming that the value of the p-AKT/AKT in the negative control was “1”, the relative value was calculated. Also, the ratio of the KLF4 gene expression to the GAPDH gene expression (KLF4/GAPDH) was determined. Assuming that KLF4/GAPDH in the negative control was “1”, the relative value was calculated.\nAlso, the ratio of KLF4 to GAPDH (KLF4/GAPDH) was determined. Assuming that KLF4/GAPDH in the negative control was “1”, the relative value was calculated. FIG. 15D is a graph showing the relative value of the ratio of KLF4 to GAPDH (KLF4/GAPDH)."}},
  "data": [
    {"molecule": "CCL2: mouse recombinant CCL2 (MCP-1, #479-JE-010, R&D Systems); in Examples 1, 3, 4(1), 5 mouse CCL2 (SEQ ID NO: 3) overexpressed from Ccl2 expression vector (protein, listed as Mus musculus) MQVPVMLLGLLFTVAGWSIHVLAQPDAVNAPLTCCYSFTSKMIPMSRLESYKRITSSRCPKEAVVFVTKLKREVCADPKKEWVQTYIKNLDRNQMRSEPTTLFKTASALRSSAPLNVKLTRKSEANASTTFSTTTSSTSVGVTSVTVN", "values": [
      {"measurement": "number of the cells", "setting": "human iPS cells; as of 48 hours", "value": "greater"},
      {"measurement": "growth potential", "setting": "human iPS cells; as of 144 hours (6th day)", "value": "improved further"},
      {"measurement": "expression of the Klf4 gene, fold change relative to negative control", "setting": "mouse ES cells", "value": "increased markedly"},
      {"measurement": "expression of the Tbx3 gene, fold change relative to negative control", "setting": "mouse ES cells", "value": "increased markedly"},
      {"measurement": "expression of the Klf4 gene, fold change relative to negative control", "setting": "mouse iPS cells", "value": "increased markedly"},
      {"measurement": "expression of the Nanog gene, fold change relative to negative control", "setting": "mouse iPS cells", "value": "increased markedly"},
      {"measurement": "expression of the Sox2 gene, fold change relative to negative control", "setting": "mouse iPS cells", "value": "increased markedly"},
      {"measurement": "expression of the Tbx3 gene, fold change relative to negative control", "setting": "mouse iPS cells", "value": "increased markedly"},
      {"measurement": "KLF4 expression (KLF4/GAPDH), relative value", "setting": "KLF4", "value": "about 1.7 fold"}
    ]}
  ]
}
